From patent US20160108110A1 (Novartis, published 2016)

Columns and labels:
[1] = biological target: T1, Human ANGPTL4(26-406)-FLAG-His6-Avi (human, UniProt Q9BY76 24-406, biotin on the C-terminal Avi tag in the biotinylated preparations (immobilised form in SET, ELISA and Octet)); assay: SET assay
T1 construct: also called full-length human ANGPTL4; hANGPTL4
T1 sequence: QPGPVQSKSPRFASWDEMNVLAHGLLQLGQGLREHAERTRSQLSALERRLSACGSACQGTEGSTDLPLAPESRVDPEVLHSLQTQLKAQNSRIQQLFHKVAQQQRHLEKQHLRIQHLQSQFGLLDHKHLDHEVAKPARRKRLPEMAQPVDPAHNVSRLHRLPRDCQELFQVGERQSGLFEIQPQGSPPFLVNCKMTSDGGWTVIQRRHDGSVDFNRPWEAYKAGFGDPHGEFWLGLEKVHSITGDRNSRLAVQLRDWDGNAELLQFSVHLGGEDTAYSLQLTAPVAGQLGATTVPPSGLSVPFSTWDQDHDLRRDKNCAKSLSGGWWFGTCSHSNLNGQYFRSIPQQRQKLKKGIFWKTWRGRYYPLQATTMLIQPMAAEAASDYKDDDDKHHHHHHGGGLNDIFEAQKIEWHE
Procedure: (§1) SET assays were performed as follows. In a 96-well polypropylene plate, a constant concentration of ANGPTL4 antibody was mixed with different concentrations of non-biotinylated human, cyno, mouse, or rat full-length ANPGLT4 protein, or human ANGPTL4 N-terminal domain protein (5-fold serial dilution) and incubated at 22° C. for 14 hours with constant shaking (300 rpm). On a pre-blocked 384-well streptavidin-coated Meso Scale Discovery (MSD) plate biotinylated ANGPTL4 (full-length human, cyno, mouse, or rat ANGPTL4, or human ANGPTL4 N-terminal domain) protein (1 nM, 15 μL per well) was immobilized and washed thereafter.
(§2) The equilibrium binding reactions (15 μL per well) were applied to the MSD plate with immobilized ANGPTL4 and incubated for 20 min at 22° C. The unbound material was removed by washing the plate 3 times with wash buffer, and the captured antibody was detected by adding Sulfo-tagged goat anti-human IgG (Meso Scale Discovery). After washing MSD read buffer T was added and the plate was developed using a Sector Imager 6000 (Meso Scale Discovery). The data were transferred to Microsoft Excel for analysis and plotted using GraphPad Prism v6. The KD values were determined by fitting the data to the following equation: […]
(§3) where Bₘₐₓ is the signal when no ANGPTL4 protein is present in solution, CAb is the constant concentration of ANGPTL4 antibody in solution, CAg is the concentration of ANGPTL4 in solution, and KD is the equilibrium dissociation constant.

[2] = biological target: T1, Human ANGPTL4(26-406)-FLAG-His6-Avi; assay: SET assay (solution equilibrium titration, MSD), IgG
Procedure: as §1, §2, §3

[3] = biological target: T1, Human ANGPTL4(26-406)-FLAG-His6-Avi; assay: cell-based or functional assay

B1: MOR023419 (antibody, V domains shown)
VH: QVQLLESGGGLVQPGGSLRLSCAASGFTFSDYALHWVRQAPGKGLEWVSRITYTGVYTGYADSVKGRFTISRDNSKNTLYLQMNSLRAEDTAVYYCAREHYYSSPMGGVAVDNWGQGTLVTVSS
VL: DIVLTQPPSVSGAPGQRVTISCSGSSSNIGYNTVSWYQQLPGTAPKLLIYSNNIRPSGVPDRFSGSKSGTSASLAITGLQAEDEADYYCSSWDFLIKSLVFGGGTKLTVL
notes: as MOR023415: built on parent Fab MOR021798, limits derived
Kd [1]: 2 pM

B2: MOR023420 (antibody, V domains shown)
VH: QVQLLESGGGLVQPGGSLRLSCAASGFTFSDYALHWVRQAPGKGLEWVSRISYMGSSTYYADSVKGRFTISRDNSKNTLYLQMNSLRAEDTAVYYCAREHYYSSPMGGVAVDNWGQGTLVTVSS
VL: DIVLTQPPSVSGAPGQRVTISCSGSSSNIGYNTVSWYQQLPGTAPKLLIYSNNIRPSGVPDRFSGSKSGTSASLAITGLQAEDEADYYCGSFDWVTSHVVFGGGTKLTVL
notes: built on parent Fab MOR021798 with LCDR3 residues 90-99 of the VL replaced (last LCDR3 residue V kept)
Kd [1]: 1 pM

B3: MOR022768 (antibody, human IgG1, kappa, V domains shown)
VH: EVQLLESGGGLVQPGGSLRLSCAASGFTFSSYYLHWVRQAPGKGLEWVSYISGSGSSTYYADSVKGRFTISRDNSKNTLYLQMNSLRAEDTAVYYCARERSYAHDHWGQGTLVTVSS
VL: DIQMTQSPSSLSASVGDRVTITCRASQDIYIDLNWYQQKPGKAPKLLIYAASKLQSGVPSRFSGSGSGTDFTLTISSLQPEDFATYYCQQGYFLPQTFGQGTKVEIKR
notes: human IgG1
Kd [2]: 4 pM | Reversal of human ANGPTL4 inhibition of human LPL EC50 [3]: 2000 pM

B4: MOR023403 (antibody, human IgG1, kappa, V domains shown)
VH: EVQLLESGGGLVQPGGSLRLSCAASGFTFSSYWMHWVRQAPGKGLEWVSVINLGSQAKYAGSVKGRFTISRDNSKNTLYLQMNSLRAEDTAVYYCARDSYIYDLHWGFDNWGQGTLVTVSS
VL: DIQMTQSPSSLSASVGDRVTITCRASQDISSYLNWYQQKPGKAPKLLIYAASRLQSGVPSRFSGSGSGTDFTLTISSLQPEDFATYYCQQSYTHPYTFGQGTKVEIKR
notes: as MOR023400: built on MOR022771, limits derived; the printed CDR is one residue shorter than the parent stretch
Kd [1]: 3 pM

B5: MOR022767 (antibody, human IgG1, kappa, V domains shown)
VH: EVQLLESGGGLVQPGGSLRLSCAASGFTFSSYYLHWVRQAPGKGLEWVSYISGEGSSTYYADSVKGRFTISRDNSKNTLYLQMNSLRAEDTAVYYCARERSYAHDHWGQGTLVTVSS
VL: DIQMTQSPSSLSASVGDRVTITCRASQDIYIDLNWYQQKPGKAPKLLIYAASKLQSGVPSRFSGSGSGTDFTLTISSLQPEDFATYYCQQGYFLPQTFGQGTKVEIKR
notes: human IgG1
Kd [2]: 19 pM | Reversal of human ANGPTL4 inhibition of human LPL EC50 [3]: 2000 pM

B6: MOR023404 (antibody, human IgG1, kappa, V domains shown)
VH: EVQLLESGGGLVQPGGSLRLSCAASGFTFSSYWMHWVRQAPGKGLEWVSVIPYMGTAKYADSVKGRFTISRDNSKNTLYLQMNSLRAEDTAVYYCARDSYIYDLHWGFDNWGQGTLVTVSS
VL: DIQMTQSPSSLSASVGDRVTITCRASQDISSYLNWYQQKPGKAPKLLIYAASRLQSGVPSRFSGSGSGTDFTLTISSLQPEDFATYYCQQSYTHPYTFGQGTKVEIKR
notes: as for B4
Kd [1]: 8 pM

B7: MOR022764 (antibody, human IgG1, lambda, V domains shown)
VH: EVQLVQSGAEVKKPGESLKISCKGSGYSFSTYWISWVRQMPGKGLEWMGIIDPSQSDTRYSPSFQGQVTISADKSISTAYLQWSSLKASDTAMYYCARVYGYVYMDVWGQGTLVTVSS
VL: SYELTQPLSVSVALGQTARITCSGDNLGKKYAYWYQQKPGQAPVLVIYDKTKRPSGIPERFSGSNSGNTATLTISRAQAGDEADYYCASYDWYSSSYVFGGGTKLTVLG
notes: human IgG1
Kd [2]: 7 pM | Reversal of human ANGPTL4 inhibition of human LPL EC50 [3]: 3000 pM

B8: MOR022766 (antibody, human IgG1, lambda, V domains shown)
VH: EVQLVQSGAEVKKPGESLKISCKGSGYSFSTYWISWVRQMPGKGLEWMGIIDPSNTDTRYSPSFQGQVTISADKSISTAYLQWSSLKASDTAMYYCARVYGYVYMDVWGQGTLVTVSS
VL: SYELTQPLSVSVALGQTARITCSGDNLGKKYAYWYQQKPGQAPVLVIYDKTKRPSGIPERFSGSNSGNTATLTISRAQAGDEADYYCASYDWYSSSYVFGGGTKLTVLG
notes: human IgG1
Kd [2]: 5 pM | Reversal of human ANGPTL4 inhibition of human LPL EC50 [3]: 3000 pM
